The target in assay [1] is human hippocampal Y5 receptor (human). The experiment in a line: 125I-PYY displacement, LM(tk-) membranes.
The target of assay [2] is rat Y4 receptor (rat) (UniProt Q63447). Description: 125I-PYY displacement, COS-7 membranes.
Assay [3] deals with rat Y2 receptor (rat) (UniProt Q9ERC0). Description: 125I-PYY displacement, COS-7 membranes.
Assay [4] addresses rat Y1 receptor (rat) (UniProt P21555). The experiment in a line: 125I-PYY displacement, COS-7 membranes.
Assay [5] addresses T1, rat hypothalamic Y5 receptor (rat).
T1 sequence: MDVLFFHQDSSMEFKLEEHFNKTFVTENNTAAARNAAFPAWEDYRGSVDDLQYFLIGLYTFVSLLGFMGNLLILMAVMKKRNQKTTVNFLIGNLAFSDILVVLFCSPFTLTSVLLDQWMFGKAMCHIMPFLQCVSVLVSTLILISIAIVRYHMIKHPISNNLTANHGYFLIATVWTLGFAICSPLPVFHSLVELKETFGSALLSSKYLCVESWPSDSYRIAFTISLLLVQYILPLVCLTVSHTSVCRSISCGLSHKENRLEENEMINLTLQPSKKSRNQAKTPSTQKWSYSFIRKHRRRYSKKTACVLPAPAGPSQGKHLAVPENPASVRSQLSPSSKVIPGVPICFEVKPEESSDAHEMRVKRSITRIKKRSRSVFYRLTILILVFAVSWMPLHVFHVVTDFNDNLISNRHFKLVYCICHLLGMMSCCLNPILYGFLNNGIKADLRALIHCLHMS
The experiment in a line: 125I-PYY displacement, COS-7 membranes.

Assay [6] addresses human hippocampal Y5 receptor (human). Description: 125I-PYY3-36 displacement, LM(tk-) membranes.
For assay [7], the target named is rat Y4 receptor (rat) (UniProt Q63447). Description: 125I-PYY displacement, COS-7 membranes. The source holds these as a separate data set.
In assay [8] the target is human Y1 receptor (human) (UniProt P25929). Description: 125I-PYY displacement, COS-7 membranes.
The target in assay [9] is human Y2 receptor (human) (UniProt P49146). Description: 125I-PYY displacement, COS-7 membranes.
Assay [10] has as its target rat Y2 receptor (rat) (UniProt Q9ERC0). The experiment in a line: 125I-PYY displacement, COS-7 membranes. The source holds these as a separate data set.
Assay [11] addresses T1, rat hypothalamic Y5 receptor (rat). The experiment in a line: 125I-PYY displacement, COS-7 membranes. This is another data set of the same source.
For assay [12], the target named is rat Y4 receptor (rat) (UniProt Q63447). The experiment in a line: 125I-PYY displacement, COS-7 membranes. The source holds these as a separate data set.
Assay [13] has as its target human Y1 receptor (human) (UniProt P25929). Description: 125I-PYY displacement, COS-7 membranes. The source holds these as a separate data set.
For assay [14], the target named is human Y2 receptor (human) (UniProt P49146). The experiment in a line: 125I-PYY displacement, COS-7 membranes. This is another data set of the same source.
The target of assay [15] is rat Y2 receptor (rat) (UniProt Q9ERC0). The experiment in a line: 125I-PYY displacement, COS-7 membranes. This is another data set of the same source.
Assay [16] addresses rat Y1 receptor (rat) (UniProt P21555). The experiment in a line: 125I-PYY displacement, COS-7 membranes. This is another data set of the same source.
In assay [17] the target is T1, rat hypothalamic Y5 receptor (rat).
The target is the same in assay [18]. The source holds these as a separate data set.
Assay [19] addresses human hippocampal Y5 receptor (human). Description: 125I-PYY displacement, COS-7 membranes.
Assay [20] shares this target.
The target is the same in assay [21]. Description: 125I-PYY displacement.
Assay [22] concerns the target membranes from rat hypothalamus. Description: 125I-PYY displacement, rat hypothalamic membranes.
In assay [23] the target is human hippocampal Y5 receptor (human). This is another data set of the same source.
For assay [24] the target is unchanged. The source holds these as a separate data set.
The target in assay [25] is T1, rat hypothalamic Y5 receptor (rat). Description: saturation binding, isotonic buffer, room temperature, COS-7 membranes.
Assay [26] shares this target. Description: time course, 0.08 nM radioligand, room temperature, 138 mM Na+.
Assay [27] shares this target. Description: time course, 0.08 nM radioligand, room temperature, 10 mM Na+.
Assay [28] addresses human Y4 receptor (human) (UniProt P50391). Description: 125I-PYY displacement, COS-7 membranes.
Assay [29] has as its target T1, rat hypothalamic Y5 receptor (rat). Description: 125I-PYY displacement, COS-7 membranes. This is another data set of the same source.
The target of assay [30] is human hippocampal Y5 receptor (human). The experiment in a line: 125I-PYY displacement, COS-7 membranes. The source holds these as a separate data set.
For assay [31], the target named is membranes from rat hypothalamus. The experiment in a line: 125I-PYY displacement, rat hypothalamic membranes; high-affinity part of a two-part curve.

Values joined by “and” are separate entries in the source; they are usually repeats but may differ in a detail not shown here. Identical values can stand only once. Like-named read-outs stand apart in the source and are kept apart here. Bounds are passed on as bounds.

rat Y4 receptor (rat), sequence (Q63447 whole entry): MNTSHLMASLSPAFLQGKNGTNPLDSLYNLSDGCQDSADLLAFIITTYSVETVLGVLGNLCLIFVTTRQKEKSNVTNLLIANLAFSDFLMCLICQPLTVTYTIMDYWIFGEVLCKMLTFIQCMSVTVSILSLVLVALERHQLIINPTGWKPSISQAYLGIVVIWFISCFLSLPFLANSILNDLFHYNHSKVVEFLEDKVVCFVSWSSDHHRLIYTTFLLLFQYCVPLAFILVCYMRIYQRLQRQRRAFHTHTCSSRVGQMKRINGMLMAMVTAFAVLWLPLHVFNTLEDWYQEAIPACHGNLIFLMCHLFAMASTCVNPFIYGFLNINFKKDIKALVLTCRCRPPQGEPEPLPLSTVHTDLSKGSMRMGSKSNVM

In general, Ki refers to the dissociation constant of the complex between target and ligand, obtained from inhibition or displacement. Low values mean tighter binding, high ones weaker binding. With “human [D-Trp^32]NPY (from UniProt P01303) (peptide)”, the Ki in assay [1] is 16 nM; with rat Y4 receptor (rat) [2], more than 630 nM; with rat Y2 receptor (rat) [3], 760 nM; in the assay with rat Y1 receptor (rat) [4] it was more than 1000 nM; in assay [5], 35 nM; in assay [6], 10 nM. Further, the Ki was more than 1000 nM in the assay with rat Y4 receptor (rat) [7]; more than 1000 nM in assay [8]; more than 1000 nM in [9]; more than 1000 nM with rat Y2 receptor (rat) [10]; 53 nM in assay [11]; more than 500 nM in the assay with rat Y4 receptor (rat) [12]. In addition, the Ki was more than 500 nM in [13]; more than 500 nM in assay [14]; more than 500 nM with rat Y2 receptor (rat) [15]; more than 500 nM with rat Y1 receptor (rat) [16]; 35 nM in [19]; 18 nM in [21]. Further, the inhibition of forskolin-stimulated cAMP accumulation, EC50 in assay [17] is 7.5 nM and 25 nm; in assay [18], 9.5 nM; in assay [20], 26 nM. In addition, in assay [18], the maximum inhibition of forskolin-stimulated cAMP accumulation (Emax) was 72%.
For the substance “human PP2-36 (from UniProt P01298) (peptide)”, the inhibition of forskolin-stimulated cAMP accumulation, EC50 in [20] stood at 2 nM.
In the assay with rat Y4 receptor (rat) [2], “human NPY free acid, P01303 (peptide; free carboxylic acid at the carboxy terminus instead of the amide; other documents disagree on this pair)” came in with a Ki of more than 1000 nM.
With frog NPY (melanostatin) (peptide), the Ki with rat Y2 receptor (rat) [3] came to 0.65 nM; with rat Y1 receptor (rat) [4], 0.09 nM; in assay [5], 0.71 nM.
With “human PYY3-36 (from UniProt P10082) (peptide)”, the inhibition of forskolin-stimulated cAMP accumulation, EC50 in assay [18] came out at 4.9 nM; in [20] it was 18 nM.
In [5], W(nor-L)RF-amide (peptide) yielded a Ki of 8700 nM.
As usually defined, the IC50 is the concentration that gives 50% inhibition. With “human PYY (from UniProt P10082) (peptide)”, the half-inhibitory concentration (IC50) in assay [22] was found to be 1.3 nM. Further, in [20], the % inhibition of cAMP accumulation relative to human NPY is 111% and the inhibition of forskolin-stimulated cAMP accumulation, EC50 stood at 4.9 nM.
For the substance “porcine [Leu^31, Pro^34]NPY (from UniProt P01304) (peptide)”, the results for the Ki with rat Y4 receptor (rat) [2], with rat Y2 receptor (rat) [3] and in the assay with rat Y1 receptor (rat) [4] were 0.32 nM, 840 nM and 0.25 nM, respectively.
In the case of “rat/human NPY (from UniProt P01303) (peptide)”, in assay [23], the inhibition of forskolin-stimulated cAMP, EC50, LM(tk-) cells came out at 2.4 nM; the inhibition of forskolin-stimulated cAMP, EC50, NIH-3T3 cells was found to be 8.5 nM; the maximum inhibition of forskolin-stimulated cAMP (Emax), LM(tk-) cells was 72%; the maximum inhibition of forskolin-stimulated cAMP (Emax), NIH-3T3 cells amounted to 42%. For the same substance, the intracellular free calcium concentration (Fura-2) in [24] was 34 nM. In assay [18], this substance registered an inhibition of forskolin-stimulated cAMP accumulation, EC50 of 1.8 nM and a maximum inhibition of forskolin-stimulated cAMP accumulation (Emax) of 67%. In assay [22], this substance displayed an IC50 of 0.82 nM. In addition, in [20], the inhibition of forskolin-stimulated cAMP accumulation, EC50 is 2.7 nM.
In the assay with rat Y4 receptor (rat) [2], “porcine NPY3-36, P01304 (peptide; other documents disagree on this pair)” yielded a Ki of 36 nM.
As for frog PP (rana temporaria) (peptide), the Ki with rat Y4 receptor (rat) [2] is more than 1000 nM; with rat Y2 receptor (rat) [3], more than 980 nM; in the assay with rat Y1 receptor (rat) [4] it was 720 nM; in assay [5], more than 550 nM.
For the substance “human [Ile^31, Gln^34]PP (from UniProt P01298) (peptide)”, the inhibition constant (Ki) in assay [19] stood at 2 nM. Moreover, the inhibition of forskolin-stimulated cAMP accumulation, EC50 in [20] came to 5.6 nM.
On to “human PP (from UniProt P01298) (peptide)”, for which, in assay [20], the % inhibition of cAMP accumulation relative to human NPY came to 96% and the inhibition of forskolin-stimulated cAMP accumulation, EC50 came to 14 nM.
For orientation: Kd means the equilibrium constant for the complex coming apart. Read a high Kd as weaker binding. For orientation: pKd means the Kd on a negative log10 scale, so that one unit is a factor of ten. High values mean a low Kd, low ones a high Kd. “porcine ^125I-[Leu^31, Pro^34]PYY (from UniProt P68005) (peptide)”: in assay [25], the Kd amounted to 0.072 nM and the pKd amounted to 10.1. In [26], this substance registered a maximal specific binding of 330 fmol/mg, an observed association rate (Kobs) of 0.029 min⁻¹ and a t1/2 of association of 24 min. In [27], the maximal specific binding amounted to 480 fmol/mg, the observed association rate (Kobs) amounted to 0.042 min⁻¹ and the t1/2 of association was 17 min.
In [18], “human NPY2-36 (from UniProt P01303) (peptide)” returned an inhibition of forskolin-stimulated cAMP accumulation, EC50 of 2 nM and a maximum inhibition of forskolin-stimulated cAMP accumulation (Emax) of 84%. This substance displayed an IC50 in assay [22] of 2.3 nM.
Take avian PP (peptide): in the assay with rat Y2 receptor (rat) [3], the Ki is more than 1000 nM.
In the case of porcine C2-NPY (peptide), the Ki was 260 nM in assay [1]; 22 nM with rat Y4 receptor (rat) [2]; 2.6 nM in the assay with rat Y2 receptor (rat) [3]; 140 nM in the assay with rat Y1 receptor (rat) [4]; more than 260 nM in assay [5]; 220 nM in assay [6]. In addition, the Ki in [8] came to 79 nM; in assay [9], 3.5 nM; in assay [28] it was 120 nM; in assay [11], 470 nM; in assay [19] it was 370 nM; in assay [29] it was 260 nM. This substance returned an inhibition of forskolin-stimulated cAMP accumulation, EC50 in assay [18] of 240 nM.
For the substance salmon PP (peptide), the Ki came out at 3 nM in the assay with rat Y4 receptor (rat) [2]; 0.16 nM with rat Y2 receptor (rat) [3]; 0.3 nM with rat Y1 receptor (rat) [4]; 0.33 nM in assay [5]; 0.63 nM in [6]; 0.11 nM in assay [8]. For the same substance, the Ki was 0.46 nM in assay [30]; 0.17 nM in assay [9]; 3.2 nM in assay [28]; 0.31 nM in assay [11]; 0.27 nM in assay [19]. In addition, the figures for the inhibition of forskolin-stimulated cAMP accumulation, EC50 in assay [18] and in [20] were 0.92 nM and 4.5 nM, respectively. In addition, in assay [20], the % inhibition of cAMP accumulation relative to human NPY was found to be 96%.
“human NPY2-36, P01303 (peptide; other documents disagree on this pair)” yielded a Ki with rat Y4 receptor (rat) [2] of 5 nM.
Still for that read-out and setting: the value for “rat/human NPY, P01303 (peptide; carboxy terminal amide; other documents disagree on this pair)” was 1.7 nM.
For the substance “human [Leu^31, Pro^34]NPY (from UniProt P01303) (peptide)”, the Ki was 0.59 nM in the assay with rat Y4 receptor (rat) [2]; more than 1000 nM with rat Y2 receptor (rat) [3]; 0.1 nM with rat Y1 receptor (rat) [4]; 1 nM in assay [5]; more than 130 nM in assay [9]. Besides, the results for the inhibition of forskolin-stimulated cAMP accumulation, EC50 in assay [18] and in assay [20] were 0.6 nM and 3 nM, respectively. The same substance displayed a maximum inhibition of forskolin-stimulated cAMP accumulation (Emax) in [18] of 70%. This substance gave an IC50 in assay [31] of 0.21 nM.

(Values after patent US20020103123A1.)
